Patent US20140017235A1

Molecular target: human NGF (human), P01138
Assay: cell-based or functional assay

human NGF (human), P01138, sequence (P01138 122-241 limits assumed): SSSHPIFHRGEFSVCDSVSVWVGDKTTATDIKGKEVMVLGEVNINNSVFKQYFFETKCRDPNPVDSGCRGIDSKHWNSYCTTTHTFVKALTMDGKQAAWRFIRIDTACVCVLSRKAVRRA

B1: antibody E3 (full antibody) (antibody, human IgG2, kappa)
heavy: QVQLQESGPGLVKPSETLSLTCTVSGFSLIGYDLNWIRQPPGKGLEWIGIIWGDGTTDYNSAVKSRVTISKDTSKNQFSLKLSSVTAADTAVYYCARGGYWYATSYYFDYWGQGTLVTVSSASTKGPSVFPLAPCSRSTSESTAALGCLVKDYFPEPVTVSWNSGALTSGVHTFPAVLQSSGLYSLSSVVTVPSSNFGTQTYTCNVDHKPSNTKVDKTVERKCCVECPPCPAPPVAGPSVFLFPPKPKDTLMISRTPEVTCVVVDVSHEDPEVQFNWYVDGVEVHNAKTKPREEQFNSTFRVVSVLTVVHQDWLNGKEYKCKVSNKGLPSSIEKTISKTKGQPREPQVYTLPPSREEMTKNQVSLTCLVKGFYPSDIAVEWESNGQPENNYKTTPPMLDSDGSFFLYSKLTVDKSRWQQGNVFSCSVMHEALHNHYTQKSLSLSPGK
light: not shown
modifications: not checked
  antibody concentration that totally blocked NGF-elicited survival of trigeminal neurons: 20 nM
